Some targets named below: NHERF2_1, Q15599; ARHGEF12, Q9NZN5-2; IL16_2, Q14005; DLG5_2, Q8TDM6; CNKSR3, Q6P9H4; MAGI1_3, Q96QZ7; LMO7, Q8WWI1.
Common to all, as to experiment: holdup assay
Common to all, as to set-up: key: below the threshold = too weak to quantify, mostly under pKd 3.1 to 4
Common to all, as to settings: plain residues with an end cap or a label only (N-terminal biotin on a linker: ttds)

The target of another assay is T1, PTPN13_4, Q12923.
T1 sequence (Q12923 1783-1878, limits assumed, looked up): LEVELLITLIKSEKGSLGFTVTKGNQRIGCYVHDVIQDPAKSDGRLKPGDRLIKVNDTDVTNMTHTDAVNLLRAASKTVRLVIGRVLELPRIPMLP

For a further assay, the target named is T2, SHROOM4, Q9ULL8.
T2 sequence (Q9ULL8 5-102, limits assumed, looked up): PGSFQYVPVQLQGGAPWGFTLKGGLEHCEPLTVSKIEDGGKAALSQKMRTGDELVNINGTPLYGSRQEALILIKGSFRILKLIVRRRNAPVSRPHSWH

For a further assay, the target named is T3, PTPN4, P29074.
T3 sequence (P29074 512-599, limits assumed, looked up): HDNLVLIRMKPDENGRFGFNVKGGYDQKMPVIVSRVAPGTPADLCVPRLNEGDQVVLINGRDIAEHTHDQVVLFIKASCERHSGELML

The target of a further assay is T4, PDZD2_1, O15018.
T4 sequence (O15018 80-192, limits assumed, looked up): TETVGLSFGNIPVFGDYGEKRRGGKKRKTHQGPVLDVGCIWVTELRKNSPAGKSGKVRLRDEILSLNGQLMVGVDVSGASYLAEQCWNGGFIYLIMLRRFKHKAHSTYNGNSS

The next assay addresses T5, SNTG1, Q9NSN8.
T5 sequence (Q9NSN8 52-150, limits assumed, looked up): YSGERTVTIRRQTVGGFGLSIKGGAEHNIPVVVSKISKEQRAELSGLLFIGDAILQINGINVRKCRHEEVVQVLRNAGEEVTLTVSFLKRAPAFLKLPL

The target in a further assay is T6, DVL1, O14640.
T6 sequence (O14640 246-333, limits assumed, looked up): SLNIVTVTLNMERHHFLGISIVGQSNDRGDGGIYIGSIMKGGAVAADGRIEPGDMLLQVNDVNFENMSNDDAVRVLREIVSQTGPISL

For a further assay, the target named is T7, NHERF1_2, O14745.
T7 sequence (O14745 149-244, limits assumed, looked up): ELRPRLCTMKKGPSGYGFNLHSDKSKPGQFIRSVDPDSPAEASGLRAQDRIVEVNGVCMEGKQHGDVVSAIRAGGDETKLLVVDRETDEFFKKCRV

In another assay the target is T8, PTPN13_5, Q12923.
T8 sequence (Q12923 1877-1975, limits assumed, looked up): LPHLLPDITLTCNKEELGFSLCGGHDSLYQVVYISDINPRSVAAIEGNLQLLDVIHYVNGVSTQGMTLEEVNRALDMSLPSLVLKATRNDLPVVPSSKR

The next assay deals with T9, APBA3_2, O96018.
T9 sequence (O96018 480-570, limits assumed, looked up): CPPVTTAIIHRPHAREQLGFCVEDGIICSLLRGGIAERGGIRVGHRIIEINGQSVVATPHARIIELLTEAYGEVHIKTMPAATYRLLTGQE

The next assay concerns the target T10, PDZD2_3, O15018.
T10 sequence (O15018 581-682, limits assumed, looked up): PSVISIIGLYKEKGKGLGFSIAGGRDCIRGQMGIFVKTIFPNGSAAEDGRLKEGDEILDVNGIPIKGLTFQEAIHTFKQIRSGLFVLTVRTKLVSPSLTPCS

A further assay addresses T11, PDZRN3_2, Q9UPQ7.
T11 sequence (Q9UPQ7 414-513, limits assumed, looked up): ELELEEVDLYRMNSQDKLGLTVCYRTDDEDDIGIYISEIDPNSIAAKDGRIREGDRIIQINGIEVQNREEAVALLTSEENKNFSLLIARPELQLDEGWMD

The target in a further assay is T12, SHROOM2, Q13796.
T12 sequence (Q13796 21-118, limits assumed, looked up): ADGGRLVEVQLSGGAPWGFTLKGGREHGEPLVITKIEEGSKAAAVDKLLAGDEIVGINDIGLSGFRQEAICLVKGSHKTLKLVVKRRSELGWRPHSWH

The target in a further assay is T13, PREX2_2, Q70Z35.
T13 sequence (Q70Z35 672-764, limits assumed, looked up): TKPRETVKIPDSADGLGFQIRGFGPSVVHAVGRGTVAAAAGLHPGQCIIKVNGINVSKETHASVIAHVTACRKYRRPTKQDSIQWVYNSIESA

In another assay the target is T14, USH1C_1, Q9Y6N9.
T14 sequence (Q9Y6N9 82-179, limits assumed, looked up): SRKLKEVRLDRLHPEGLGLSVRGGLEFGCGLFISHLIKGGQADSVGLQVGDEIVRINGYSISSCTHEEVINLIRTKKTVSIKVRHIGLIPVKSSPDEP

A further assay concerns the target T15, NHERF3_2, Q5T2W1.
T15 sequence (Q5T2W1 129-225, limits assumed, looked up): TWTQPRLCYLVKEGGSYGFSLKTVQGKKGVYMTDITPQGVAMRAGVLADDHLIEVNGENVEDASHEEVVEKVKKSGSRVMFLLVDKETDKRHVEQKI

Results on 5 molecules are retold here after article PMC9482650, “Quantitative fragmentomics allow affinity mapping of interactomes” (Nature Communications, 2022).

Sequence of IL16_2, Q14005 (Q14005 350-450): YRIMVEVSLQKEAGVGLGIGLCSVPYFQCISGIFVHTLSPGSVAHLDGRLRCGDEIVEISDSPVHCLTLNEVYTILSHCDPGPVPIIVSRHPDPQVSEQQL
Sequence of ARHGEF12, Q9NZN5-2 (Q9NZN5 other isoform, or with tags, fused parts or gaps): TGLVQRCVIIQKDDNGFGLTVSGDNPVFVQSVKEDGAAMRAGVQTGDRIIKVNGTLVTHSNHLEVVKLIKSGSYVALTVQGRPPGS
Sequence of NHERF2_1, Q15599 (Q15599 9-91): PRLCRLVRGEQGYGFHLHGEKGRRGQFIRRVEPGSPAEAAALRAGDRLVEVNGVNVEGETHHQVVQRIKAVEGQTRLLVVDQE
Sequence of CNKSR3, Q6P9H4 (Q6P9H4 203-303): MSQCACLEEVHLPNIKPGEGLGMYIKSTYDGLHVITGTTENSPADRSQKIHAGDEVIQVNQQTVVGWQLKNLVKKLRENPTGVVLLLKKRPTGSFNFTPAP
Sequence of DLG5_2, Q8TDM6 (Q8TDM6 714-800): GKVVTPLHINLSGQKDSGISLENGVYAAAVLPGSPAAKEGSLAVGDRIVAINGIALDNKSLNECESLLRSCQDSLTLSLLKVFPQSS
Sequence of LMO7, Q8WWI1 (Q8WWI1 1037-1138): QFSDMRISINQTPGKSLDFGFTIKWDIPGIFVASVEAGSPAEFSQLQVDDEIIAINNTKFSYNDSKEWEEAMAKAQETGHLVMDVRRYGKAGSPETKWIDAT
Sequence of MAGI1_3, Q96QZ7 (Q96QZ7 638-725): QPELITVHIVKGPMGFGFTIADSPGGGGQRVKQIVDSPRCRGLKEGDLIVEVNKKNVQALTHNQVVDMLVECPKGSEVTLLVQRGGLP

With SKPTRRETEV [HPV35-E6, P27228], the pKd entry in the assay with PTPN13_4, Q12923 is “below the threshold”; in the assay with SHROOM4, Q9ULL8 it was “below the threshold”; in the assay with PTPN4, P29074, 4.03; in the assay with NHERF2_1, Q15599, 3.77; with PDZD2_1, O15018, “below the threshold”; with SNTG1, Q9NSN8, 4.31. The pKd in the assay with ARHGEF12, Q9NZN5-2 was 4.06; with DVL1, O14640, “below the threshold”; with NHERF1_2, O14745 it was “below the threshold”; with PTPN13_5, Q12923, “below the threshold”; with IL16_2, Q14005, 3.57; with APBA3_2, O96018 it was “below the threshold”. The pKd result with PDZD2_3, O15018 was “below the threshold”; in the assay with PDZRN3_2, Q9UPQ7 it was 3.57; with SHROOM2, Q13796, “below the threshold”; with PREX2_2, Q70Z35, 3.62; with DLG5_2, Q8TDM6, 4.72; with USH1C_1, Q9Y6N9, “below the threshold”. For the same molecule, the pKd is 3.57 in the assay with CNKSR3, Q6P9H4; 4.09 with MAGI1_3, Q96QZ7; “below the threshold” in the assay with NHERF3_2, Q5T2W1.

Turning to QRQARSETLV [HPV59-E6, Q81964], the pKd is 4.42 in the assay with PTPN13_4, Q12923; “below the threshold” in the assay with SHROOM4, Q9ULL8; “below the threshold” with PTPN4, P29074; “below the threshold” with NHERF2_1, Q15599; “below the threshold” in the assay with PDZD2_1, O15018; 4.17 with SNTG1, Q9NSN8. The pKd entry was “below the threshold” with ARHGEF12, Q9NZN5-2; “below the threshold” in the assay with DVL1, O14640; “below the threshold” with NHERF1_2, O14745; 4.52 with PTPN13_5, Q12923; “below the threshold” in the assay with IL16_2, Q14005; “below the threshold” with APBA3_2, O96018. For the same molecule, the pKd entry in the assay with PDZD2_3, O15018 is “below the threshold”; with PDZRN3_2, Q9UPQ7 it was “below the threshold”; with SHROOM2, Q13796, “below the threshold”; with PREX2_2, Q70Z35, “below the threshold”; with LMO7, Q8WWI1, “below the threshold”; in the assay with DLG5_2, Q8TDM6, “below the threshold”. In addition, the pKd result was “below the threshold” in the assay with USH1C_1, Q9Y6N9; “below the threshold” in the assay with CNKSR3, Q6P9H4; 5.25 in the assay with MAGI1_3, Q96QZ7; “below the threshold” in the assay with NHERF3_2, Q5T2W1.

For the molecule RHTTSTETAV [HPV30-E6, P36809], the pKd result was “below the threshold” with PTPN13_4, Q12923; 4.73 with SHROOM4, Q9ULL8; 4.72 in the assay with PTPN4, P29074; “below the threshold” in the assay with NHERF2_1, Q15599; “below the threshold” in the assay with PDZD2_1, O15018; 4.94 with SNTG1, Q9NSN8. Moreover, the pKd was 4.2 with ARHGEF12, Q9NZN5-2; “below the threshold” with DVL1, O14640; “below the threshold” with NHERF1_2, O14745; “below the threshold” in the assay with PTPN13_5, Q12923; “below the threshold” in the assay with IL16_2, Q14005; “below the threshold” with APBA3_2, O96018. For the same molecule, the pKd result in the assay with PDZD2_3, O15018 is recorded as “below the threshold”; in the assay with PDZRN3_2, Q9UPQ7, “below the threshold”; with SHROOM2, Q13796, “below the threshold”; in the assay with PREX2_2, Q70Z35 it was “below the threshold”; in the assay with LMO7, Q8WWI1, “below the threshold”; in the assay with DLG5_2, Q8TDM6, “below the threshold”. For the same molecule, the pKd result is “below the threshold” with USH1C_1, Q9Y6N9; “below the threshold” in the assay with CNKSR3, Q6P9H4; 4.72 with MAGI1_3, Q96QZ7; “below the threshold” with NHERF3_2, Q5T2W1.

Take SSLQSLETSV [ATP2B4, P23634]: the pKd result with PTPN13_4, Q12923 is “below the threshold”; in the assay with SHROOM4, Q9ULL8, 4.68; with PTPN4, P29074 it was 4.88; with NHERF2_1, Q15599, “below the threshold”; with PDZD2_1, O15018, “below the threshold”; with SNTG1, Q9NSN8, 5.08. Further, the pKd is 4.4 with ARHGEF12, Q9NZN5-2; “below the threshold” with DVL1, O14640; “below the threshold” with NHERF1_2, O14745; “below the threshold” with PTPN13_5, Q12923; “below the threshold” with IL16_2, Q14005; 4.21 with APBA3_2, O96018. Moreover, the pKd result was “below the threshold” in the assay with PDZD2_3, O15018; “below the threshold” in the assay with PDZRN3_2, Q9UPQ7; “below the threshold” with SHROOM2, Q13796; “below the threshold” with PREX2_2, Q70Z35; 4.5 in the assay with LMO7, Q8WWI1; 4.34 with DLG5_2, Q8TDM6. Moreover, the pKd result with USH1C_1, Q9Y6N9 was “below the threshold”; in the assay with CNKSR3, Q6P9H4, “below the threshold”; in the assay with MAGI1_3, Q96QZ7 it was 4.44; with NHERF3_2, Q5T2W1, “below the threshold”.

Consider RLQRRRETQV [HPV18-E6, P06463], for which the pKd with PTPN13_4, Q12923 is 4.03; with SHROOM4, Q9ULL8, “below the threshold”; with PTPN4, P29074, 4.62; with NHERF2_1, Q15599 it was “below the threshold”; with PDZD2_1, O15018, “below the threshold”; with SNTG1, Q9NSN8, 3.93. In addition, the pKd in the assay with ARHGEF12, Q9NZN5-2 is 3.91; in the assay with DVL1, O14640 it was “below the threshold”; with NHERF1_2, O14745, “below the threshold”; in the assay with PTPN13_5, Q12923, “below the threshold”; in the assay with IL16_2, Q14005 it was “below the threshold”; in the assay with APBA3_2, O96018 it was “below the threshold”. In addition, the pKd entry with PDZD2_3, O15018 was “below the threshold”; with SHROOM2, Q13796, “below the threshold”; with PREX2_2, Q70Z35 it was 4; in the assay with LMO7, Q8WWI1, “below the threshold”; with DLG5_2, Q8TDM6, “below the threshold”; with USH1C_1, Q9Y6N9, “below the threshold”. The pKd was 4.1 in the assay with CNKSR3, Q6P9H4; “below the threshold” in the assay with MAGI1_3, Q96QZ7; “below the threshold” in the assay with NHERF3_2, Q5T2W1.

As usually defined, the pKd is the Kd on a negative log10 scale, so that one unit is a factor of ten.
